Read-outs that look alike come from different tables or passages of the source. Oligonucleotides are written 5' to 3', each unit as a sugar letter and its base; * is a phosphorothioate linkage, no mark a phosphodiester; rarer units and linkages stand in square brackets, end groups in braces. Plain capitals give the bases only. d = 2'-deoxy (DNA); r = 2'-OH (RNA); f = 2'-fluoro
How the values were obtained:
[1] = target: T1, human vWF A1 domain (SEQ ID NO 5) (Homo sapiens, UniProt P04275, T1381A); experiment: 3-point dot blot screen, human vWF A1 domain; type: binding; conditions: 100 nM human vWF A1 domain
Outline: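 Values are ratios of aptamer fraction retained on nitrocellulose with 100 nM vWF A1 domain (human or rabbit) versus a no-protein control. Unique clones from rounds 9 and 12 pools were transcribed, desalted and 5'-32P labeled before this three-point dot blot screen.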

[2] = test system: full length human vWF binding to lyophilized platelets; experiment: Full length human von Willebrand Factor platelet binding assay (FACS); type: cell-based; conditions: 5 nM full length human vWF, lyophilized platelets, botrocetin; both bounds in nM
Protocol: The amount of vWF bound to fixed platelets can be measured with an antibody to vWF. The fluorescence signal from bound antibody incubated with a fluorescein conjugated secondary antibody is then detected and quantified by flow cytometry. The ability of an aptamer of the invention to block vWF binding to platelets is correlated with a reduction in fluorescence signal.
Aptamer potency to block human vWF binding to lyophilized platelets was assessed by flow cytometric analysis. Titrations of aptamers (0 nM, 0.1 nM to 1000 nM) were pre-incubated briefly with 5 nM of full length human vWF in FACS buffer (PBS plus 0.5% bovine serum albumin) at room temperature in a volume of 50 uL. Another 50 uL containing 5 uL of lyophilized platelets plus 1 uL of 0.1 U/uL of botrocetin in FACS buffer was added to aptamer/vWF. This reaction was allowed to proceed for 15 minutes at 37 degrees C. after which 200 uL of FACS buffer was added. Platelets were collected by a 6 minute spin at 1470 RCF and the supernatant was discarded. The pellets were resuspended in 100 uL of FACS buffer containing a 1:100 dilution of anti-vWF antibody and were incubated at room temperature for 30 minutes. After dilution with 200 uL of FACS buffer, the platelets were spun at 1470 RCF for 6 minutes and the supernatant was discarded. The pellets were resuspended in a 1:100 solution of anti-IgG2a-FITC antibody and were incubated in the dark for 30 minutes at room temperature. The entire 100 uL was diluted into 200 uL of FACS buffer and analyzed immediately by flow cytometric analysis in the FACSCAN. Artifactual data from contaminating debris was eliminated from the analysis by drawing a gate around the population of single and aggregated platelets. Mean fluorescent intensity (“MFI”) readings were quantified for each sample analyzed by flow cytometry. Background MFI was subtracted from all data points. Percent inhibition was reported by calculating the percent value of binding of full length human vWF to platelets in the presence of aptamer at a given concentration relative to binding in the absence of any aptamer (see FIG. 7). IC50 values were determined by fitting the percent inhibition of vWF binding to platelets as a function of aptamer concentration to the equation: % inhibition=% inhibitionmax/(1+IC50/aptamer conc.)

[3] = test system: rabbit vWF A1 domain (SEQ ID NO 6); experiment: 3-point dot blot screen, rabbit vWF A1 domain; type: binding; conditions: 100 nM rabbit vWF A1 domain, ratio of fraction bound with target to without
Outline: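 Rabbit vWF A1 domain binding was screened by dot blot using three conditions: no target protein, human vWF, and rabbit vWF A1 domain at 100 nM (20 nM in the screen run twice). Radiolabeled aptamer bound to nitrocellulose was quantified, and results are expressed as the ratio of bound fraction with protein to bound fraction without protein.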

[4] = target: T1, human vWF A1 domain (SEQ ID NO 5); experiment: dot blot KD determination, human vWF A1 domain
Protocol: For KD determination, aptamers transcripts were purified on 10% denaturing polyacrylamide gels, 5′ end labeled with γ-^32P ATP.
For KD determination, aptamers were purified on denaturing polyacrylamide gels and 5′-end labeled with γ-^32P ATP. A 6 point protein titration of human vWF A1 domain (SEQ ID NO 5) was used in the dot blot assay (333 nM, 100 nM, 33 nM, 10 nM, 3 nM, 0 nM) in 1×DPBS plus 0.1 mg/mL BSA at room temperature for 30 minutes. KD values were calculated by fitting the equation y=(max/(1+K/protein))+yint using KaleidaGraph (KaleidaGraph v. 3.51, Synergy Software).
KD values were calculated by fitting the equation y=(max/(1+K/protein))+yint using KaleidaGraph (KaleidaGraph v. 3.51, Synergy Software).
All minimer sequences were transcribed, gel-purified on 15% denaturing polyacrylamide gels, 5-^32 end-labeled with γ^32P ATP, and then desalted using two Centri-Spin 10 columns (Princeton Separations Cat. #CS-101, Adelphia, N.J.). For KD determination, minimer transcripts were tested for direct binding to full length human vWF (SEQ ID NO 7), human vWF A1 domain (SEQ ID NO 5), and rabbit vWF A1 domain (SEQ ID NO 6) using an 8 point protein titration from 0-300 nM (3 fold dilutions) in 1× Dulbecco's PBS containing 0.1 mg/mL BSA (in a final volume of 50 uL) for 30 minutes at room temperature and then applied to a nitrocellulose and nylon filter sandwich in a dot blot apparatus (Schleicher and Schuell, Keene, N.H.). KD values were calculated by fitting the equation y=(max/(1+K/protein))+yint using KaleidaGraph (KaleidaGraph v. 3.51, Synergy Software).
All minimer DNA sequences were chemically synthesized, 5-^32P end-labeled with γ-^32P ATP, and then desalted using two Centri-Spin 10 columns (Princeton Separations, Cat. #CS-101, Adelphia, N.J.). […] KD values were calculated by fitting the equation y=(max/(1+K/protein))+yint using KaleidaGraph (KaleidaGraph v. 3.51, Synergy Software).

[5] = rRdY aptamers, ratio of fraction bound with target to without
[6] = read-out: Human A1 KD, rRdY aptamers, 6 point protein titration
[7] = rRfY aptamers, ratio of fraction bound with target to fraction bound without target
[8] = read-out: human A1 KD, rRfY aptamers, 8 point titration of human vWF A1 domain

T1 sequence (P04275 with tags, fused parts or gaps T1381A): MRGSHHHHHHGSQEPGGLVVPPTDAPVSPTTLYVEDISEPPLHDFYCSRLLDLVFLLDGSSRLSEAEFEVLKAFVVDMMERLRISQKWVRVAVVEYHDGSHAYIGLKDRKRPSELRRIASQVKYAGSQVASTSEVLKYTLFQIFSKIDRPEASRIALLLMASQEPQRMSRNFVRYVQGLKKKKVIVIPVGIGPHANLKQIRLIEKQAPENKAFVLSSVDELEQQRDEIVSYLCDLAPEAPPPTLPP
Sequence of rabbit vWF A1 domain (SEQ ID NO 6) (as listed by the source): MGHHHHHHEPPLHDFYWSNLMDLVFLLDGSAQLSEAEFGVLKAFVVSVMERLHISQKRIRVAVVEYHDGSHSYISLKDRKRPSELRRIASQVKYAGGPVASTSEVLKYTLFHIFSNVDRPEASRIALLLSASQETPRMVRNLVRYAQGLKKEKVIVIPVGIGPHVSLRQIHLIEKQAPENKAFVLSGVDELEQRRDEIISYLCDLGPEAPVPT

B1: AMX205.H11: rRdY aptamer clone (nucleic acid)
chain: rGrGrArGdCrGdCrAdCdTdCrArGdCdCrAdCrGrGdCrAdCrGrAdCrGrGdTrGrAdTrGrGrAdTdTrArGdCrGdCrGrGdTrGdTdCrGrGdTrGrGdTrGdTdCrAdTdTdTdCrGrAdCdCdTdCdTdCdTrGdCdTrArGdC
Screen- Human/No Protein [1, 5]: 2.18
Inhibition of full length hVWF binding in FACS assay, IC50 range [2]: no activity
Screen- Rabbit/No Protein ([3]; rRdY aptamers): 2.41
Kd [4, 6]: 144 nM

B2: AMX201.G1: rRfY aptamer clone (nucleic acid)
chain: rGrGrArGfCrGfCrAfCfUfCrArGfCfCrAfCrGfCfUfCrGrGfUrGrGrGrGrArArAfUfUfUfUrArGfCfCfUrArAfUfUrGrGfCfUrAfCfUfUrGfUrGfCrGfUfUfUfCrGrAfCfCfUfCfUfCfUrGfCfUrArGfC
Screen- Human/No Protein [1, 7]: 2.14
Inhibition of full length hVWF binding in FACS assay, IC50 range [2]: no activity
Screen- Rabbit/No Protein ([3]; rRfY aptamers): 2.20
Kd [4, 8]: 190 nM

B3: AMX205.H8: rRdY aptamer clone (nucleic acid)
chain: rGrGrArGdCrGdCrAdCdTdCrArGdCdCrAdCrArArAdCrGrGrAdCrGrGdTrGrAdTrGrGrAdTdTrArAdCrGdCrGrGrGdTdTdTrAdTrGrGdCrArArGrGdTdTdTdCrGrAdCdCdTdCdTdCdTrGdCdTrArGdC
Screen- Human/No Protein [1, 5]: 2.04
Inhibition of full length hVWF binding in FACS assay, IC50 range [2]: no activity
Screen- Rabbit/No Protein ([3]; rRdY aptamers): 2.84
Kd [4, 6]: 788 nM

B4: AMX203.D6: rRdY aptamer clone (nucleic acid)
chain: rGrGrArGdCrGdCrAdCdTdCrArGdCdCrAdCrArGdTdTdCdTrGdTdCrGrGdTrGrAdTrGrArAdTdTrArGdCrGdCrGrArGrArGdCdTrGdTrGrGrGrAdCrGdTdTdTdCrGrAdCdCdTdCdTdCdTrGdCdTrArGdC
Screen- Human/No Protein [1, 5]: 1.92
Inhibition of full length hVWF binding in FACS assay, IC50 range [2]: no activity
Screen- Rabbit/No Protein ([3]; rRdY aptamers): 1.57
Kd [4, 6]: 523 nM

B5: AMX205.H9: rRdY aptamer clone (nucleic acid)
chain: rGrGrArGdCrGdCrAdCdTdCrArGdCdCrAdCrGrAdCrGrGdTrGrAdTrGrGrAdTdTrArGdCrGdCrGrGdTrGrGrArGrArArGrAdTrGdCrGdCdTrGdTdTrGdTdTdTdCrGrAdCdCdTdCdTdCdTrGdCdTrArGdC
Screen- Human/No Protein [1, 5]: 2.36
Inhibition of full length hVWF binding in FACS assay, IC50 range [2]: no activity
Screen- Rabbit/No Protein ([3]; rRdY aptamers): 3.14
Kd [4, 6]: 178 nM

B6: AMX203.A1: rRdY aptamer clone (nucleic acid)
chain: rGrGrArGdCrGdCrAdCdTdCrArGdCdCrAdCrArGdTdTdCdTrGdTdCrGrGdTrGrAdTrGrArAdTdTrArGdCrGdCrGrGrGrArGdCdTrGdTrGrGrGrAdCrGdTdTdTdCrGrAdCdCdTdCdTdCdTrGdCdTrArGdC
Screen- Human/No Protein [1, 5]: 2.99
Inhibition of full length hVWF binding in FACS assay, IC50 range [2]: no activity
Screen- Rabbit/No Protein ([3]; rRdY aptamers): 2.67
Kd [4, 6]: 1150 nM

B7: AMX206.E7: rRdY aptamer clone (nucleic acid)
chain: rGrGrArGdCrGdCrAdCdTdCrArGdCdCrAdCrGrGrArGdCrGdTdCrGrGdTrGrAdTrGrGrAdTdTrArGdCrGdCrGrGdCdTdCdCrGdTrGrGdTrAdCrAdCdCdTdTdTdCrGrAdCdCdTdCdTdCdTrGdCdTrArGdC
Screen- Human/No Protein [1, 5]: 2.11
Inhibition of full length hVWF binding in FACS assay, IC50 range [2]: no activity
Screen- Rabbit/No Protein ([3]; rRdY aptamers): 2.26
Kd [4, 6]: 151 nM

B8: AMX206.F9: rRdY aptamer clone (nucleic acid)
chain: rGrGrArGdCrGdCrAdCdTdCrArGdCdCrAdCrGrGrArGdCrGdTdCrGrGdTrGrAdTrGrGrAdTdTrArGdCrGdCrGrGdCdTdCdCrGdTrGrGdTrAdCrAdCrAdTdTdTdCrGrAdCdCdTdCdTdCdTrGdCdTrArGdC
Screen- Human/No Protein [1, 5]: 2.98
Inhibition of full length hVWF binding in FACS assay, IC50 range [2]: no activity
Screen- Rabbit/No Protein ([3]; rRdY aptamers): 3.00
Kd [4, 6]: 139 nM

B9: AMX206.A10: rRdY aptamer clone (nucleic acid)
chain: rGrGrArGdCrGdCrAdCdTdCrArGdCdCrAdCrGrGdCrAdTrGrAdCrGrGdTrGrAdTrGrArAdTdTrArGdCrGdCrGrGdTrGdTdCrGrGdTrGrGdTrGdTdCrAdTdTdTdCrGrAdCdCdTdCdTdCdTrGdCdTrArGdC
Screen- Human/No Protein [1, 5]: 2.62
Inhibition of full length hVWF binding in FACS assay, IC50 range [2]: no activity
Screen- Rabbit/No Protein ([3]; rRdY aptamers): 2.58
Kd [4, 6]: 111 nM

B10: AMX205.F9: rRdY aptamer clone (nucleic acid)
chain: rGrGrArGdCrGdCrAdCdTdCrArGdCdCrAdCrGrGrArGdCrGdTdCrGrGdTrGrAdTrGrGrAdTdTrArGdCrGdCrGrGdCdTdCdCrGdTrGrGdTrAdCrGdCdCdTdTdTdCrGrAdCdCdTdCdTdCdTrGdCdTrArGdC
Screen- Human/No Protein [1, 5]: 2.22
Inhibition of full length hVWF binding in FACS assay, IC50 range [2]: no activity
Screen- Rabbit/No Protein ([3]; rRdY aptamers): 2.47
Kd [4, 6]: 145 nM

B11: AMX205.D11: rRdY aptamer clone (nucleic acid)
chain: rGrGrArGdCrGdCrAdCdTdCrArGdCdCrAdCrGrGdCrAdCrGrAdCrGrGdTrGrAdTrGrArAdTdTrArGdCrGdCrGrGdTrGdTdCrGrGdTrGrGdTrGdTdCrAdTdTdTdCrGrAdCdCdTdCdTdCdTrGdCdTrArGdC
Screen- Human/No Protein [1, 5]: 2.22
Inhibition of full length hVWF binding in FACS assay, IC50 range [2]: no activity
Screen- Rabbit/No Protein ([3]; rRdY aptamers): 2.07
Kd [4, 6]: 124 nM

B12: AMX206.H9: rRdY aptamer clone (nucleic acid)
chain: rGrGrArGdCrGdCrAdCdTdCrArGdCdCrAdCrGrGrArGdCrGdTdCrGrGdTrGrAdTrGrGrAdTdTrArGdCrGdCrGrGdTdTdCdCrGdTrGrGdTrAdCrAdCdCdTdTdTdCrGrAdCdCdTdCdTdCdTrGdCdTrArGdC
Screen- Human/No Protein [1, 5]: 1.98
Inhibition of full length hVWF binding in FACS assay, IC50 range [2]: no activity
Screen- Rabbit/No Protein ([3]; rRdY aptamers): 2.31
Kd [4, 6]: 109 nM

B13: AMX198.G1: rRfY aptamer clone (nucleic acid)
chain: rGrGrArGfCrGfCrAfCfUfCrArGfCfCrAfCrArAfCrAfCfUrArAfUrGrGrGrGrArArArGfUfUfCrArArGrGrAfUfUfCfUfUrGrAfCfCrGrGfUrGfCrGfUfUfUfCrGrAfCfCfUfCfUfCfUrGfCfUrArGfC
Screen- Human/No Protein [1, 7]: 1.89
Inhibition of full length hVWF binding in FACS assay, IC50 range [2]: no activity
Screen- Rabbit/No Protein ([3]; rRfY aptamers): 1.90
Kd [4, 8]: 45 nM

B14: AMX206.D7: rRdY aptamer clone (nucleic acid)
chain: rGrGrArGdCrGdCrAdCdTdCrArGdCdCrAdCrGrGdCrAdCrGrAdCrGrGdTrGrAdTrGrArAdTdTrArGdCrGdCrGrGdTrGdTdCrGrGdTrGrGdTrGdTdTrAdTdTdTdCrGrAdCdCdTdCdTdCdTrGdCdTrArGdC
Screen- Human/No Protein [1, 5]: 2.19
Inhibition of full length hVWF binding in FACS assay, IC50 range [2]: no activity
Screen- Rabbit/No Protein ([3]; rRdY aptamers): 2.08
Kd [4, 6]: 187 nM
